T1: human LEPR CRH1 (D1)-MMH (human, UniProt P48357 22-229, limits assumed)
T1 construct: domain: CRH1 (D1); Transiently expressed, captured from supernatant on anti-myc beads
T1 sequence (looked up): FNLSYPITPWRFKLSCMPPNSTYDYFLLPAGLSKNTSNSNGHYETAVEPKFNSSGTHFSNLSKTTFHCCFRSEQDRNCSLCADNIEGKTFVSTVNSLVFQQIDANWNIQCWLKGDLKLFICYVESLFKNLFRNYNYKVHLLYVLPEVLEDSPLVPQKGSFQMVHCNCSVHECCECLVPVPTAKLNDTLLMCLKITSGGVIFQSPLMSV

T2: human LEPR Ig (D3)-MMH (human, UniProt P48357 340-427, limits assumed)
T2 construct: domain: Ig (D3); Transiently expressed, captured from supernatant on anti-myc beads
T2 sequence (looked up): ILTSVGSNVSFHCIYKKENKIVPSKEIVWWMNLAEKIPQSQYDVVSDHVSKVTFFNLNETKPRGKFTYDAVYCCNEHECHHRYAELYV

T3: human LEPR CRH1 (D1,D2,D3)-MMH (human, UniProt P48357 22-427, limits assumed)
T3 construct: domain: CRH1-Ig (D1,D2,D3); Transiently expressed, captured from supernatant on anti-myc beads; also called CRH1-Ig (D1, D2, D3)
T3 sequence (looked up): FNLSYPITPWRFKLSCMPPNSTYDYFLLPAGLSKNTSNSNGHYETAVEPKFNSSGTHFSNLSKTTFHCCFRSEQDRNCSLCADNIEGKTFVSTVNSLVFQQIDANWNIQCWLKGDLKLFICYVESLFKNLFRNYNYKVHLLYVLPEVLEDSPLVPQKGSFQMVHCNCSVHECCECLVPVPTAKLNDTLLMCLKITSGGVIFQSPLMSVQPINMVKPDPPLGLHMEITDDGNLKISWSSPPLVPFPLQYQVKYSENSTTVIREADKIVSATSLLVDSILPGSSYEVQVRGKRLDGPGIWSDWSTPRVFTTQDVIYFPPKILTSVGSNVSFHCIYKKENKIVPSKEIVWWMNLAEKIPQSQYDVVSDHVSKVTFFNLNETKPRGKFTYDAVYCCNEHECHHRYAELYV

T4: human LEPR CRH1-Ig (D2,D3)-MMH (human, UniProt P48357 230-427, limits assumed)
T4 construct: domain: CRH1-Ig (D2,D3); Transiently expressed, captured from supernatant on anti-myc beads
T4 sequence (looked up): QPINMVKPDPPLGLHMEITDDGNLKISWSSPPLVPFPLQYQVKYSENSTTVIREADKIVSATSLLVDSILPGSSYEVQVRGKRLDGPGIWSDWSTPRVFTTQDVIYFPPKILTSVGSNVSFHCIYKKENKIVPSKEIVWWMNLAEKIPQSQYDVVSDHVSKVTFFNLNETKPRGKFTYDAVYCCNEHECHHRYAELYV

T5: human LEPR FNIII-MMH (human, UniProt P48357 636-839, limits assumed)
T5 construct: domain: FNIII; Transiently expressed, captured from supernatant on anti-myc beads
T5 sequence (looked up): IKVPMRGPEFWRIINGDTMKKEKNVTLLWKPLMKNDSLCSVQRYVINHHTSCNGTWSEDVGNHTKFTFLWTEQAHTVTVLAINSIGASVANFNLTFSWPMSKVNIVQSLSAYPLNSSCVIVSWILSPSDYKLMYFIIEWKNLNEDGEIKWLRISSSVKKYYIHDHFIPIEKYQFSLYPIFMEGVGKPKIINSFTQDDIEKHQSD

T6: human LEPR CRH2-MMH (human, UniProt P48357 428-634, limits assumed)
T6 construct: domain: CRH2; Transiently expressed, captured from supernatant on anti-myc beads
T6 sequence (looked up): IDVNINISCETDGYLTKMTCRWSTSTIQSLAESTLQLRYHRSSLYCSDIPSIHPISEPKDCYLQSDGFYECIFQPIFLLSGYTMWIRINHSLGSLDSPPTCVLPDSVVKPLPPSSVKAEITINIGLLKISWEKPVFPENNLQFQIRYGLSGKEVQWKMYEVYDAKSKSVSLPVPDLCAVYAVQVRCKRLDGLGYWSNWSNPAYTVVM


How the values were obtained:
Experiment in all cases: Luminex, myc-captured LEPR protein on beads, Ab 5 µg/mL
[1] = target: T1, human LEPR CRH1 (D1)-MMH
Description: (§1) Aliquots of microspheres with immobilized anti-myc monoclonal antibodies, prepared as described above, were added individually to 1 mL of the each of these protein supernatants. The microspheres were gently mixed, incubated for two hours at 25° C., washed twice with 1 mL of DBPS, centrifuged to remove the supernatant and finally resuspended in 1 mL of DPBS buffer. Forty eight μL of anti-myc IgG coupled microspheres from individual reactions with full length human LEPR and with each of the human LEPR domain proteins were withdrawn and mixed together in 3.6 mL of PBS+20 mg/mL BSA+0.05% sodium azide (blocking buffer).
(§2) From this mixed pool, 75 μL of microspheres were plated per well on a 96 well filter plate (Millipore, Cat. No: MSBVN1250) and mixed with 25 μL of individual anti-human LEPR monoclonal antibodies (0.5 or 5 μg/mL), incubated for two hours at 25° C. and then washed twice with 200 μL of DPBS with 0.05% Tween 20 (washing buffer). […] After 30 minutes, the samples were washed twice with 200 μL of washing buffer and resuspended in 150 μL of wash buffer. The Median Fluorescence intensity (MFI) of the microspheres was measured in a Luminex Analyzer.

[2] = target: T2, human LEPR Ig (D3)-MMH
Description: as §1, §2

[3] = target: T3, human LEPR CRH1 (D1,D2,D3)-MMH
Description: as §1, §2

[4] = target: T4, human LEPR CRH1-Ig (D2,D3)-MMH
Description: as §1, §2

[5] = target: T5, human LEPR FNIII-MMH
Description: as §1, §2

[6] = target: T6, human LEPR CRH2-MMH
Description: as §1, §2

[7] = target: T7, recombinant human LEPR extracellular domain expressed with a C-terminal myc-myc-hexahistidine tag (human, UniProt P48357 22-839)
T7 construct: Monomeric construct; also called hLEPR.MMH; hLEPR-MMH
Description: as §1, §2

Row | Luminex MFI [1] | Luminex MFI [2] | Luminex MFI [3] | Luminex MFI [4] | Luminex MFI [5] | Luminex MFI [6] | Luminex MFI [7] | Binder
1 | 21 MFI | 26 MFI | 34 MFI | 43 MFI | 1590 MFI | 25 MFI | 8640 MFI | H4H18437P2 (antibody, human IgG4, V domains shown, H4H prefix: human IgG4 Fc) VH: QVQLVESGGGVVQPGRSLRLSCAASGFTFSSYGIHWVRQAPGKGLEWVAVISYDGNNKYYADSVKGRFTISRDNSKNTLYLQMNSLRAEDTAVYYCAKDLFLEWLFHGMGVWGQGTTVTVSS VL: not shown
2 | 11 MFI | 18 MFI | 8020 MFI | 10000 MFI | 13 MFI | 16 MFI | 5470 MFI | H4H18439P2 (antibody, human IgG4, V domains shown, H4H prefix: human IgG4 Fc) VH: QLQLQESGPGLVKPSETLSLTCIVSGGDITSSSYYWNWIRQPPGKGLEWIGNIYYSGSTNYNPSLKSRVTISIDTSKSQFSLKLRSVTAADTAVYYCARLLRYFDWSKGYLDYWGQGTLVTVSS VL: not shown
3 | 8 MFI | 14 MFI | 8240 MFI | 9160 MFI | 10 MFI | 17 MFI | 7040 MFI | H4H18440P2 (antibody, human IgG4, V domains shown, H4H prefix: human IgG4 Fc) VH: QVQLVESGGGMVKPGGSLRLSCAASGFTFSDYYMSWIRQAPGKGLEWISHISITGSTIYYADSVKGRFTISRDNAKNSLYLEMNRLRDEDTAVYYCTRDEPDIVLVRYGMDVWGQGTTVTVSS VL: not shown
4 | 13 MFI | 18 MFI | 31 MFI | 43 MFI | 1190 MFI | 18 MFI | 7500 MFI | H4H18457P2 (antibody, human IgG4, V domains shown, H4H prefix: human IgG4 Fc) VH: EVQLVESGGSVVRPGESLRLSCAASGFTFDDYGMSWVRQAPGKGLEWVSGISWNGGITVYADSVKGRFTVSRDNAKNSLYLQMNSLRAEDTALYHCARARYGGADYWGQGTLVTVSS VL: not shown
5 | 15 MFI | 26 MFI |  | 76 MFI | 457 MFI | 17 MFI | 5070 MFI | H4H18466P2 (antibody, human IgG4, V domains shown, H4H prefix: human IgG4 Fc) VH: EVQLVESGGGLVQPGGSLRLSCTASGFTFSSYGLHWVRQAPGKGLEYVSSINHNGGSKYYADSVKGRFTISRDNSKNTLFLQMGSLKTEDMAVYYCARDLFLEWLFHGFDIWGQGTMVTVSS VL: not shown
6 | 14 MFI | 26 MFI | 31 MFI | 58 MFI | 23 MFI | 19700 MFI | 8930 MFI | H4H17322P2 (antibody, human IgG4, V domains shown, H4H prefix: human IgG4 Fc) VH: QLQLQESGPGLVKPSETLSLTCTVSGASISSSRFYGGWIRQPPGKGLEWIGDIYYSGNTYYNPSLQSRVTISVDTSKNQFSLKLSSVTAADTAVYYCARHLMITFGGLIVEGFDIWGQGTMVTVSS VL: not shown
7 | 13 MFI |  | 5560 MFI | 3740 MFI | 23 MFI | 24 MFI | 9380 MFI | H4H18464P2 (antibody, human IgG4, V domains shown, H4H prefix: human IgG4 Fc) VH: QVQLVQSGPEVKKPGASVKVSCKGSGYTFSWYGISWIRQAPGHGLEWMGWISASSGNTRFAQKVQGRLTMTTDTSTSTAYMELRSLRSDDTAVYYCARTGTRPFDYWGQGTLVTVSS VL: not shown
8 | 5380 MFI | 21 MFI | 3960 MFI | 47 MFI | 581 MFI | 24 MFI | 5850 MFI | H4H18462P2 (antibody, human IgG4, V domains shown, H4H prefix: human IgG4 Fc) VH: EVQLVESGGDLVQPGRSLRLSCAASGFTFSSFAMSWVRQAPGRGLEWVSSLSDSGDNTYYADSVKGRFTISRDNSKNTLYLQMNNLRAEDTAVYYCAKDLFSGWLFHGFDVWGQGTMVTVSS VL: not shown

From patent publication US20200123264A1 (Regeneron, published 2020)
